± gives the standard deviation of the averaged measurements.
Experiment: total protein half-life in vivo (active degradation + dilution); higher = more stable protein
[1] = E. coli NCM3722 delta-clpP delta-lon delta-hslV, growth: N-lim chemostat, doubling time 6 h
[2] = E. coli NCM3722 delta-clpP, growth: N-lim chemostat, doubling time 6 h
[3] = E. coli NCM3722 delta-hslV, growth: N-lim chemostat, doubling time 6 h
[4] = E. coli NCM3722 delta-lon, growth: N-lim chemostat, doubling time 6 h
[5] = E. coli NCM3722 delta-smpB, growth: N-lim chemostat, doubling time 6 h
[6] = wild type E. coli NCM3722, growth: C-lim chemostat, doubling time 3 h
[7] = wild type E. coli NCM3722, growth: C-lim chemostat, doubling time 6 h
[8] = wild type E. coli NCM3722, growth: C-lim chemostat, doubling time 12 h
[9] = wild type E. coli NCM3722, growth: N-lim chemostat, doubling time 6 h
[10] = wild type E. coli NCM3722, growth: N-lim chemostat, doubling time 12 h
[11] = wild type E. coli NCM3722, growth: P-lim chemostat, doubling time 6 h
[12] = wild type E. coli NCM3722, growth: P-lim chemostat, doubling time 12 h

Row | Sequence | total protein half-life in vivo [1] [h] | total protein half-life in vivo [2] [h] | total protein half-life in vivo [3] [h] | total protein half-life in vivo [4] [h] | total protein half-life in vivo [5] [h] | total protein half-life in vivo [6] [h] | total protein half-life in vivo [7] [h] | total protein half-life in vivo [8] [h] | total protein half-life in vivo [9] [h] | total protein half-life in vivo [10] [h] | total protein half-life in vivo [11] [h] | total protein half-life in vivo [12] [h]
1 | MPVAHVALPVPLPRTFDYLLPEGMTVKAGCRVRVPFGKQQERIGIVVSVSDASELPLNELKAVVEVLDSEPVFTHSVWRLLLWAADYYHHPIGDVLFHALPILLRQGRPAANAPMWYWFATEQGQAVDLNSLKRSPKQQQALAALRQGKIWRDQVATLEFNDAALQALRKKGLCDLASETPEFSDWRTNYAVSGERLRLNTEQATAVGAIHSAADTFSAWLLAGVTGSGKTEVYLSVLENVLAQGKQALVMVPEIGLTPQTIARFRERFNAPVEVLHSGLNDSERLSAWLKAKNGEAAIVIGTRSALFTPFKNLGVIVIDEEHDSSYKQQEGWRYHARDLAVYRAHSEQIPIILGSATPALETLCNVQQKKYRLLRLTRRAGNARPAIQHVLDLKGQKVQAGLAPALITRMRQHLQADNQVILFLNRRGFAPALLCHDCGWIAECPRCDHYYTLHQAQHHLRCHHCDSQRPVPRQCPSCGSTHLVPVGLGTEQLEQTLAPLFPGVPISRIDRDTTSRKGALEQQLAEVHRGGARILIGTQMLAKGHHFPDVTLVALLDVDGALFSADFRSAERFAQLYTQVAGRAGRAGKQGEVVLQTHHPEHPLLQTLLYKGYDAFAEQALAERRMMQLPPWTSHVIVRAEDHNNQHAPLFLQQLRNLILSSPLADEKLWVLGPVPALAPKRGGRWRWQILLQHPSRVRLQHIINGTLALINTIPDSRKVKWVLDVDPIEG | 5.492 ± 0.011 | 6.24 ± 0.23 | 5.9 ± 0.067 | 5.89 ± 0.2 | 5.23 ± 0.45 | 2.86 ± 0.03 | 5.85 ± 0.21 | 9.53 ± 1.3 | 5.35 ± 0.074 | 12.2 ± 1 | 6.13 ± 0.2 | 
2 | MPVRAQRIQHVMQDTIINFYSTSDDYGDFSNFAAWPIKVDGKTWPTSEHYFQAQKFLDEKYREEIRRVSSPMVAARMGRDRSKPLRKNWESVKEQVMRKALRAKFEQHAELRALLLATAPAKLVEHTENDAYWGDGGHGKGKNRLGYLLMELREQLAIEK |  |  | 4.25 |  |  |  |  | 12.3 |  |  |  | 
3 | MPVRASIEPLTWENAFFGVNSAIVRITSEAPLLTPDALAPWSRVQAKIAASNTGELDALQQLGFSLVEGEVDLALPVNNASDSGAVVAQETDIPALRQLASAAFAQSRFRAPWYAPDASSRFYAQWIENAVRGTFDHQCLILRAASGDIRGYVSLRELNATDARIGLLAGRGAGAELMQTALNWAYARGKTTLRVATQMGNTAALKRYIQSGANVESTAYWLYR | 5.12 ± 0.074 | 5.45 ± 0.15 | 5.034 ± 0.029 | 5.27 ± 0.26 | 4.7 ± 0.44 | 3.03 ± 0.15 | 5.9 ± 0.062 | 11.5 | 5.052 ± 0.012 | 9.31 ± 0.14 | 5.73 ± 0.87 | 12.6 ± 0.52
4 | MPWIQLKLNTTGANAEDLSDALMEAGAVSITFQDTHDTPVFEPLPGETRLWGDTDVIGLFDAETDMNDVVAILENHPLLGAGFAHKIEQLEDKDWEREWMDNFHPMRFGERLWICPSWRDVPDENAVNVMLDPGLAFGTGTHPTTSLCLQWLDSLDLTGKTVIDFGCGSGILAIAALKLGAAKAIGIDIDPQAIQASRDNAERNGVSDRLELYLPKDQPEEMKADVVVANILAGPLRELAPLISVLPVSGGLLGLSGILASQAESVCEAYADSFALDPVVEKEEWCRITGRKN [P0A8T1] | 5.8 ± 2.4 | 4.39 ± 0.31 | 5.13 ± 1.4 | 4.36 ± 0.61 | 3.91 ± 0.063 | 3.16 ± 0.55 | 4.89 ± 0.5 | 9.36 ± 0.56 | 4.39 ± 0.22 | 6.89 ± 0.88 | 5.37 ± 0.1 | 10.86 ± 0.1
5 | MPYKTKSDLPESVKHVLPSHAQDIYKEAFNSAWDQYKDKEDRRDDASREETAHKVAWAAVKHEYAKGDDDKWHKKS [P0AE63] | 6.81 ± 0.52 | 4.36 ± 0.59 |  | 5.1 ± 0.19 | 5.01 ± 2.3 |  | 5.53 | 6.09 | 3.3 ± 0.35 | 6.77 ± 0.7 | 4.41 | 7.39 ± 1.7
6 | MQASQFSAQVLDWYDKYGRKTLPWQIDKTPYKVWLSEVMLQQTQVATVIPYFERFMARFPTVTDLANAPLDEVLHLWTGLGYYARARNLHKAAQQVATLHGGKFPETFEEVAALPGVGRSTAGAILSLSLGKHFPILDGNVKRVLARCYAVSGWPGKKEVENKLWSLSEQVTPAVGVERFNQAMMDLGAMICTRSKPKCSLCPLQNGCIAAANNSWALYPGKKPKQTLPERTGYFLLLQHEDEVLLAQRPPSGLWGGLYCFPQFADEESLRQWLAQRQIAADNLTQLTAFRHTFSHFHLDIVPMWLPVSSFTGCMDEGNALWYNLAQPPSVGLAAPVERLLQQLRTGAPV |  | 5.73 ± 0.018 | 4.02 ± 0.7 | 3.65 ± 0.12 | 3.52 ± 0.35 | 3.86 | 4.84 ± 0.14 | 7.51 ± 0.26 | 4.8 ± 1.8 | 6.05 | 4.89 ± 0.49 | 8.5 ± 0.85
7 | MQCALYDAGRCRSCQWIMQPIPEQLSAKTADLKNLLADFPVEEWCAPVSGPEQGFRNKAKMVVSGSVEKPLLGMLHRDGTPEDLCDCPLYPASFAPVFAALKPFIARAGLTPYNVARKRGELKYILLTESQSDGGMMLRFVLRSDTKLAQLRKALPWLHEQLPQLKVITVNIQPVHMAIMEGETEIYLTEQQALAERFNDVPLWIRPQSFFQTNPAVASQLYATARDWVRQLPVKHMWDLFCGVGGFGLHCATPDMQLTGIEIASEAIACAKQSAAELGLTRLQFQALDSTQFATAQGDVPELVLVNPPRRGIGKPLCDYLSTMAPRFIIYSSCNAQTMAKDIRELPGFRIERVQLFDMFPHTAHYEVLTLLVKQ | 5.35 ± 0.065 | 3.16 | 4.89 ± 0.31 | 5.02 ± 0.69 | 4.32 ± 0.3 | 3.6 | 5.35 ± 0.8 | > 16 | 5.51 | 10.8 ± 1.5 | 5.7 ± 0.55 | 11.9 ± 1.2
8 | MQDEYYMARALKLAQRGRFTTHPNPNVGCVIVKDGEIVGEGYHQRAGEPHAEVHALRMAGEKAKGATAYVTLEPCSHHGRTPPCCDALIAAGVARVVASMQDPNPQVAGRGLYRLQQAGIDVSHGLMMSEAEQLNKGFLKRMRTGFPYIQLKLGASLDGRTAMASGESQWITSPQARRDVQLLRAQSHAILTSSATVLADDPALTVRWSELDEQTQALYPQQNLRQPIRIVIDSQNRVTPVHRIVQQPGETWFARTQEDSREWPETVRTLLIPEHKGHLDLVVLMMQLGKQQINSIWVEAGPTLAGALLQAGLVDELIVYIAPKLLGSDARGLCTLPGLEKLADAPQFKFKEIRHVGPDVCLHLVGA | 5.45 ± 0.12 | 4.76 ± 0.62 | 5.07 ± 0.25 | 5.1 ± 0.31 | 4.57 ± 0.21 | 2.9 ± 0.13 | 6.76 ± 0.081 | 10.1 ± 0.38 | 4.98 ± 0.35 | 8.77 ± 0.11 | 5.904 ± 0.027 | 11.7 ± 0.15
9 | MQDKDFFSWRRTMLLRFQRMETAEEVYHEIELQAQQLEYDYYSLCVRHPVPFTRPKVAFYTNYPEAWVSYYQAKNFLAIDPVLNPENFSQGHLMWNDDLFSEAQPLWEAARAHGLRRGVTQYLMLPNRALGFLSFSRCSAREIPILSDELQLKMQLLVRESLMALMRLNDEIVMTPEMNFSKREKEILRWTAEGKTSAEIAMILSISENTVNFHQKNMQKKINAPNKTQVACYAAATGLI | 4.97 ± 0.28 |  |  |  |  |  |  |  |  |  |  | 
10 | MQDLISQVEDLAGIEIDHTTSMVMIFGIIFLTAVVVHIILHWVVLRTFEKRAIASSRLWLQIITQNKLFHRLAFTLQGIIVNIQAVFWLQKGTEAADILTTCAQLWIMMYALLSVFSLLDVILNLAQKFPAASQLPLKGIFQGIKLIGAILVGILMISLLIGQSPAILISGLGAMAAVLMLVFKDPILGLVAGIQLSANDMLKLGDWLEMPKYGADGAVIDIGLTTVKVRNWDNTITTIPTWSLVSDSFKNWSGMSASGGRRIKRSISIDVTSIRFLDEDEMQRLNKAHLLKPYLTSRHQEINEWNRQQGSTESVLNLRRMTNIGTFRAYLNEYLRNHPRIRKDMTLMVRQLAPGDNGLPLEIYAFTNTVVWLEYESIQADIFDHIFAIVEEFGLRLHQSPTGNDIRSLAGAFKQ [P0AAT4] | 6.49 ± 0.43 | 6.36 ± 0.28 | 6.274 ± 0.01 | 6.69 ± 1.4 | 6.33 ± 0.022 | 3.52 ± 0.6 | 6.12 ± 0.22 | 13.9 ± 0.19 | 6.22 ± 0.46 | 12 ± 1.6 | 5.84 ± 0.59 | 13.7 ± 1.2
11 | MQDRNFDDIAEKFSRNIYGTTKGQLRQAILWQDLDRVLAEMGPQKLRVLDAGGGEGQTAIKMAERGHQVILCDLSAQMIDRAKQAAEAKGVSDNMQFIHCAAQDVASHLETPVDLILFHAVLEWVADPRSVLQTLWSVLRPGGVLSLMFYNAHGLLMHNMVAGNFDYVQAGMPKKKKRTLSPDYPRDPAQVYLWLEEAGWQIMGKTGVRVFHDYLREKHQQRDCYEALLELETRYCRQEPYITLGRYIHVTARKPQSKDKV | 4.99 ± 0.24 | 4.498 ± 0.018 | 3.95 ± 0.13 | 4.57 ± 0.49 | 4.304 ± 0.012 | 2.96 ± 0.23 | 5.46 ± 0.57 | 10.2 ± 0.95 | 4.21 ± 0.36 | 7.11 ± 0.55 | 5.32 ± 0.21 | 11 ± 0.42
12 | MQDSILTTVVKDIDGEVTTLEKFAGNVLLIVNVASKCGLTPQYEQLENIQKAWVDRGFMVLGFPCNQFLEQEPGSDEEIKTYCTTTWGVTFPMFSKIEVNGEGRHPLYQKLIAAAPTAVAPEESGFYARMVSKGRAPLYPDDILWNFEKFLVGRDGKVIQRFSPDMTPEDPIVMESIKLALAK | 5.18 ± 1.1 | 4.68 ± 0.55 | 4.23 ± 0.055 | 4.73 ± 0.43 | 4.24 ± 0.047 | 2.82 ± 0.28 | 4.93 ± 0.1 | 7.87 ± 4.7 | 3.99 ± 0.07 | 6.05 ± 0.29 | 4.87 ± 0.1 | 11.1 ± 0.68

— the supplement of paper PMC11246515
